Assays:
[1] = target: Myosin VI tail (MVITAIL 814-1253) (human); assay: FRET or BRET; AF555-MVITAIL and FITC-MVITAIL in the presence of 20 uM DNA; monomer to dimer; 25 C, 50 mM Tris-HCl pH 7.5, 150 mM NaCl, 1 mM DTT
[2] = target: Myosin VI tail (MVITAIL 814-1253) (human); assay: FRET or BRET; AF555-MVITAIL titrated against FITC-MVITAIL in the presence of 20 uM NDP52 and DNA; monomer to dimer; 25 C, 50 mM Tris-HCl pH 7.5, 150 mM NaCl, 1 mM DTT
[3] = target: Myosin VI tail (MVITAIL 814-1253) (human); assay: FRET or BRET; AF555-labelled pool titrated against the FITC-labelled pool of the same construct, no additive; monomer to dimer; 25 C, 50 mM Tris-HCl pH 7.5, 150 mM NaCl, 1 mM DTT
[4] = target: Myosin VI tail (MVITAIL 814-1253) (human); assay: FRET or BRET; AF555-labelled pool titrated against the FITC-labelled pool of the same construct in the presence of 20 uM NDP52; monomer to dimer; 25 C, 50 mM Tris-HCl pH 7.5, 150 mM NaCl, 1 mM DTT
[5] = target: Cargo binding domain of myosin VI (CBD 1060-1253) (human); assay: FRET or BRET; Alexa555-NMVITAIL titrated to FITC-CBD (1 uM); 25 C, 50 mM Tris-HCl pH 7.5, 150 mM NaCl, 1 mM DTT; quadratic binding fit
[6] = target: N-terminal tail domain of myosin VI (NMVITAIL 814-1060) (human); assay: FRET or BRET; AF555-labelled pool titrated against the FITC-labelled pool of the same construct, no additive; monomer to dimer; 25 C, 50 mM Tris-HCl pH 7.5, 150 mM NaCl, 1 mM DTT
[7] = target: Cargo binding domain of myosin VI (CBD 1060-1253) (human); assay: fluorescence polarisation; fluorescence anisotropy; unlabelled protein titrated against the FITC-labelled partner (NMVITAIL against FITC-CBD and CBD against FITC-NMVITAIL); 25 C, 50 mM Tris-HCl pH 7.5, 150 mM NaCl, 1 mM DTT
[8] = target: Full-length myosin VI (non-insert isoform), recombinant, co-expressed with calmodulin (human | Xenopus) (UniProt Q9UM54)
NDP52 [9] = target: T1, NDP52 (Human, UniProt Q13137 1-446)
T1 sequence: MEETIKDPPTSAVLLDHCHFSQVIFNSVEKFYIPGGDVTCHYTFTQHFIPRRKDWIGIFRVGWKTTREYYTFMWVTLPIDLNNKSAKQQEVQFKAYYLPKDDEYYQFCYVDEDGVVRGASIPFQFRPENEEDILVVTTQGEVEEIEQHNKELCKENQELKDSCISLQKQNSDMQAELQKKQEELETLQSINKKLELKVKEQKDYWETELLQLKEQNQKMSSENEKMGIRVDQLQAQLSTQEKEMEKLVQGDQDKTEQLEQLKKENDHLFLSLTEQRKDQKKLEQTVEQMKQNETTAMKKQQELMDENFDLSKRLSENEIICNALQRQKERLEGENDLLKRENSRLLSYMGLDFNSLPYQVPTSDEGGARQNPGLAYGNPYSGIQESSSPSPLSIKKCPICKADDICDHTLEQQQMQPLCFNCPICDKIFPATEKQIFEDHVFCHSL

NDP52 [10] = target: T1, NDP52; assay: FRET or BRET; FITC-MVI_TAIL constructs and Alexa555-NDP52 (1 uM); 25 C, 50 mM Tris-HCl pH 7.5, 150 mM NaCl, 1 mM DTT
[11] = target: N-terminal tail domain of myosin VI (NMVITAIL 814-1060) (human); assay: fluorescence polarisation; fluorescence anisotropy; unlabelled protein titrated against the FITC-labelled partner (NMVITAIL against FITC-CBD and CBD against FITC-NMVITAIL); 25 C, 50 mM Tris-HCl pH 7.5, 150 mM NaCl, 1 mM DTT
CBD = CBD (Human, UniProt Q9UM54-5 1060-1253); assay: fluorescence anisotropy; FAM-DNA 50 nM; assay buffer, salt, pH and temperature not given in the material (duplex annealing in water or 50 mM Tris-HCl pH 7.5, 150 mM NaCl, 3 mM MgCl2); settings: protein: recombinant, tags: His-tag (pET28)
MVITAIL = MVITAIL (Human, UniProt Q9UM54-5 814-1253); assay: as above; settings: protein: recombinant; tags: His-tag (pET151), TEV-cleaved; label: 3' FAM on strand A; blunt
Chain of MVITAIL (Q9UM54 other isoform, or with tags, fused parts or gaps): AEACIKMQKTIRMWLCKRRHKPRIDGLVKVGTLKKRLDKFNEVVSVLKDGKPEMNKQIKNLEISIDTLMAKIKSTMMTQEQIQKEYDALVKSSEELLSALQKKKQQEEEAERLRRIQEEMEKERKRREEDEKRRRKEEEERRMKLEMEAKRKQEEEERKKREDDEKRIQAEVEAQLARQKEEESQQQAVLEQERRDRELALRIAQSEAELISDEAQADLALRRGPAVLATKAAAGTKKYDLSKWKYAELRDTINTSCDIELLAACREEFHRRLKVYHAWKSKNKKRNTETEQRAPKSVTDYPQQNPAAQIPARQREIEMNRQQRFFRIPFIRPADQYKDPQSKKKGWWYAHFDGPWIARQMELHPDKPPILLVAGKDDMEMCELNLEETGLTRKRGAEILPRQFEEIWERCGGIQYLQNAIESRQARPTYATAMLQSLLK

MVITAIL(W1221A) = MVITAIL(W1221A) (Human, UniProt Q9UM54-5 814-1253, W1221A); assay: as above; settings: protein: recombinant; tags: His-tag (pET151), TEV-cleaved; label: 3' FAM on strand A; blunt
Chain of MVITAIL(W1221A) (Q9UM54 other isoform, or with tags, fused parts or gaps W1221A | W1221A W1221A): as the sequence (Q9UM54 other isoform, or with tags, fused parts or gaps) above, with W408A counted along it

NDP52 [12] = target: T1, NDP52; assay: fluorescence intensity titration; FAM-DNA 50 nM; assay buffer, salt, pH and temperature not given in the material (duplex annealing in water or 50 mM Tris-HCl pH 7.5, 150 mM NaCl, 3 mM MgCl2); settings: protein: recombinant; tags: His-tag (pET151), TEV-cleaved; chain copies: 2; label: 3' FAM on strand A; blunt
[13] = target: Myosin VI tail (MVITAIL 814-1253) (human); assay: FRET or BRET; FITC-MVITAIL constructs and Alexa555-NDP52 (1 uM NDP52 by the legend of Fig. 4d); 25 C, 50 mM Tris-HCl pH 7.5, 150 mM NaCl, 1 mM DTT; quadratic binding fit
[14] = target: Myosin VI tail RRL/AAA mutant (MVITAIL RRL/AAA) (human); assay: as above
[15] = target: Myosin VI tail RRL/ARL mutant (MVITAIL RRL/ARL, R1116A) (human); assay: as above
[16] = target: Myosin VI tail RRL/RRA mutant (MVITAIL RRL/RRA, L1118A) (human); assay: as above
[17] = target: Myosin VI tail, large insert (MVITAIL (large insert) 814-1284) (human); assay: as above
NDP52 (recombinant) = target: T2, NDP52 (recombinant) (UniProt Q13137 1-446, Alexa Fluor 555 label in the FRET titration with MVI_TAIL; unlabelled where added as a third component); assay: FRET or BRET; FITC-MVI_TAIL constructs and Alexa555-NDP52 (1 uM); 25 C, 50 mM Tris-HCl pH 7.5, 150 mM NaCl, 1 mM DTT; settings: both partners purified
T2 construct: NDP52 (SKICH domain, coiled-coil, two zinc fingers); also called Alexa555-NDP52; source: E. coli BL21 DE3, purified (HisTrap, Superdex 200)
T2 sequence (looked up): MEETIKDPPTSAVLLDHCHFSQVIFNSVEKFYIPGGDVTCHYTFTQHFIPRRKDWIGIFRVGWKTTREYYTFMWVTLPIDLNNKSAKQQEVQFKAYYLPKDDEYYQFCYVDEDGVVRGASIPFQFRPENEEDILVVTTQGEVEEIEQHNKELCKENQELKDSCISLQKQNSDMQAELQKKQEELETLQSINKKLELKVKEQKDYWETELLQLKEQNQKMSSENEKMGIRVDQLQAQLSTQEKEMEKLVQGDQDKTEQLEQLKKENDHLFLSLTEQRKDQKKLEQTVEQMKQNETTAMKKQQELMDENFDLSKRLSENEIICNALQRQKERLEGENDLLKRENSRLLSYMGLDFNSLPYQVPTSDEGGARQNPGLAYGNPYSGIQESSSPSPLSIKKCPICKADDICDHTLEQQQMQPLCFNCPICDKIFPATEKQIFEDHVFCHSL

[18] = label: 3' FAM on strand A, blunt

“Myosin VI tail (MVITAIL 814-1253) (domain or fragment)” showed a Kd [1] of 29 µM, a Kd [2] of 2500 nM and a Kd [3] of 27 µM. The Kd [4] was 2300 nM.

For “N-terminal tail domain of myosin VI (NMVITAIL 814-1060) (domain or fragment)”, the Kd [5] was 4.5 µM, the Kd [6] was 3.1 µM and the Kd [7] was 4 µM.

Molecule “Full-length myosin VI (non-insert isoform), recombinant, co-expressed with calmodulin (from UniProt Q9UM54-5 1-1253; P0DP33 1-149) (complex)” has a steady-state actin-activated ATPase rate constant of MVI, reduction on addition of NDP52 [8] of 50% and a velocity of actin filaments in the sliding filament assay with MVI pre-incubated with / immobilised through NDP52 (0.1, 0.5 or 1 μM); two populations, 50–60 and 90 nm s^−1 (NDP52 [9]) of 90 nm/s.

With “MVI_(TAIL) with the leucine of the RRL motif removed (RRA) (domain or fragment)” the fold decrease in affinity against wild-type MVI TAIL (NDP52 [10]) was 10 fold.

Work on “Cargo binding domain of myosin VI (CBD 1060-1253) (domain or fragment)” yielded a Kd [11] of 4.2 µM.

B1: ds40 (dsDNA)
DNA 1: TTAGTTGTTCGTAGTGCTCGTCTGGCTCTGGATTACCCGC
DNA 2: GCGGGTAATCCAGAGCCAGACGAGCACTACGAACAACTAA
B1 gave a Kd (CBD; [18]) of 100 nM, a Kd (MVITAIL) of 2500 nM and a Kd (MVITAIL(W1221A)) of 300 ± 30 nM. It also gave a Kd (NDP52 [12]) of 80 ± 25 nM.

In the case of TTAGTTGTTCGTAGTGCTCGTCTGGCTCTGGATTACCCGC (ssDNA) [ss40], the Kd (CBD; label: 3' FAM) is reported as 120 ± 35 nM.

B2: NDP52 (1-end) (natural protein)
chain: MEETIKDPPTSAVLLDHCHFSQVIFNSVEKFYIPGGDVTCHYTFTQHFIPRRKDWIGIFRVGWKTTREYYTFMWVTLPIDLNNKSAKQQEVQFKAYYLPKDDEYYQFCYVDEDGVVRGASIPFQFRPENEEDILVVTTQGEVEEIEQHNKELCKENQELKDSCISLQKQNSDMQAELQKKQEELETLQSINKKLELKVKEQKDYWETELLQLKEQNQKMSSENEKMGIRVDQLQAQLSTQEKEMEKLVQGDQDKTEQLEQLKKENDHLFLSLTEQRKDQKKLEQTVEQMKQNETTAMKKQQELMDENFDLSKRLSENEIICNALQRQKERLEGENDLLKRENSRLLSYMGLDFNSLPYQVPTSDEGGARQNPGLAYGNPYSGIQESSSPSPLSIKKCPICKADDICDHTLEQQQMQPLCFNCPICDKIFPATEKQIFEDHVFCHSL
modifications: Alexa Fluor 555 label (site not stated)
With B2 the Kd [13] was 3.2 µM, the Kd [14] was 63 µM and the Kd [15] was 4.6 µM. It also gave a Kd [16] of 21 µM and a Kd [17] of 9.8 µM.

In the case of TTTTTTTTTTTTTTTTTTTT (ssDNA) [dT20], the Kd (CBD) is reported as 120 ± 25 nM.

B3: ds15 (15 bp) (dsDNA)
DNA 1: TTAGTTGTTCTCTGG
DNA 2: CCAGAGAACAACTAA
For B3, the Kd (CBD; [18]) was 500 ± 45 nM.

B4: MVI_(TAIL) (large insert) (domain or fragment)
chain: AEACIKMQKTIRMWLCKRRHKPRIDGLVKVGTLKKRLDKFNEVVSVLKDGKPEMNKQIKNLEISIDTLMAKIKSTMMTQEQIQKEYDALVKSSEELLSALQKKKQQEEEAERLRRIQEEMEKERKRREEDEKRRRKEEEERRMKLEMEAKRKQEEEERKKREDDEKRIQAEVEAQLARQKEEESQQQAVLEQERRDRELALRIAQSEAELISDEAQADLALRSLDSYPVTSKNDGTRPKMTPEQMAKEMSEFLSRGPAVLATKAAAGTKKYDLSKWKYAELRDTINTSCDIELLAACREEFHRRLKVYHAWKSKNKKRNTETEQRAPKSVTDYAQQNPAAQIPARQREIEMNRQQRFFRIPFIRPADQYKDPQSKKKGWWYAHFDGPWIARQMELHPDKPPILLVAGKDDMEMCELNLEETGLTRKRGAEILPRQFEEIWERCGGIQYLQNAIESRQARPTYATAMLQSLLK
modifications: FITC label
B4 was tested, and the “fold reduction of binding against wild-type MVI_TAIL” value (NDP52 (recombinant)) was 4 fold.

TCTGGCTCTGGATTACCCGC (ssDNA) [ss20] was tested, and the Kd (CBD; label: 3' FAM) was 110 ± 35 nM.

— paper PMC5707354 (Nature Communications, 2017)
